Laboratory results: PMC3819363, “Post-Transcriptional Regulator Hfq Binds Catalase HPII: Crystal Structure of the Complex” (PLoS ONE, 2013)

Target: the molecule itself
Assay: SDS-PAGE; samples in SDS buffer on a polyacrylamide gel; bands of the dissolved crystals identified by PMF MALDI-TOF; crystals heated at ~95°C for 5 min

B1: catalase HPII (endogenous, Escherichia coli) (enzyme, Escherichia coli (endogenous in E. coli), UniProt P21179 1-753, looked up)
chain: MSQHNEKNPHQHQSPLHDSSEAKPGMDSLAPEDGSHRPAAEPTPPGAQPTAPGSLKAPDTRNEKLNSLEDVRKGSENYALTTNQGVRIADDQNSLRAGSRGPTLLEDFILREKITHFDHERIPERIVHARGSAAHGYFQPYKSLSDITKADFLSDPNKITPVFVRFSTVQGGAGSADTVRDIRGFATKFYTEEGIFDLVGNNTPIFFIQDAHKFPDFVHAVKPEPHWAIPQGQSAHDTFWDYVSLQPETLHNVMWAMSDRGIPRSYRTMEGFGIHTFRLINAEGKATFVRFHWKPLAGKASLVWDEAQKLTGRDPDFHRRELWEAIEAGDFPEYELGFQLIPEEDEFKFDFDLLDPTKLIPEELVPVQRVGKMVLNRNPDNFFAENEQAAFHPGHIVPGLDFTNDPLLQGRLFSYTDTQISRLGGPNFHEIPINRPTCPYHNFQRDGMHRMGIDTNPANYEPNSINDNWPRETPPGPKRGGFESYQERVEGNKVRERSPSFGEYYSHPRLFWLSQTPFEQRHIVDGFSFELSKVVRPYIRERVVDQLAHIDLTLAQAVAKNLGIELTDDQLNITPPPDVNGLKKDPSLSLYAIPDGDVKGRVVAILLNDEVRSADLLAILKALKAKGVHAKLLYSRMGEVTADDGTVLPIAATFAGAPSLTVDAVIVPCGNIADIADNGDANYYLMEAYKHLKPIALAGDARKFKATIKIADQGEEGIVEADSADGSFMDELLTLMAAHRVWSRIPKIDKIPA
notes: catalase HPII of Escherichia coli, product of the katE gene, endogenous protein, printed molecular weight 84 kDa; residues 27-753 and one heme resolved in the map; Homotetramer, one heme per subunit; also called HPII tetramer; source: endogenous, E. coli overexpressing PomAB mutants
stoichiometry N: 2 subunits
